Results taken from the supplement of paper PMC5998384.

Key:
HeLa Kyoto [1] = assay: solubility in G1/S (NP-40 vs SDS abundance) (log2 ratio); higher = more soluble; details: cell cycle stage: G1/S
HeLa Kyoto [2] = assay: melting temperature (median over replicates), in situ; higher = more thermally stable
HeLa Kyoto [3] = assay: solubility change mitosis vs G1/S (difference of NP-40 vs SDS log2 ratios) (log2 ratio difference); higher = more soluble in mitosis
HeLa Kyoto [4] = assay: thermal stability score vs G1/S (z-score of summed log2 fold changes over temperatures); higher = more thermally stable than in G1/S
[5] = cell cycle stage: early G1 (4.5 h after nocodazole release)
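Throughout, for melting temperature (median over replicates), in situ: HeLa Kyoto cells synchronized by double thymidine or nocodazole block, proteins quantified by TMT10plex mass spectrometry, three independent biological replicates.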
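Throughout, for solubility change mitosis vs G1/S (difference of NP-40 vs SDS log2 ratios): synchronized HeLa Kyoto cells (double thymidine block for G1/S, nocodazole release for mitosis), protein amounts in NP-40 versus SDS lysates quantified by mass spectrometry, three biological replicates.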
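Throughout, for solubility in G1/S (NP-40 vs SDS abundance): HeLa Kyoto cells arrested at G1/S by double thymidine block, proteins quantified by TMT10plex mass spectrometry in mild NP-40 versus SDS extracts, three biological replicates.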
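Throughout, for thermal stability score vs G1/S (z-score of summed log2 fold changes over temperatures): synchronized HeLa Kyoto cells, proteins quantified by TMT10plex mass spectrometry, three biological replicates, mitosis taken 0.5 h after nocodazole release, G1/S directly after double thymidine block.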

Row | Sequence | solubility in G1/S (log2) (HeLa Kyoto [1]) | melting temperature (HeLa Kyoto [2]; cell cycle stage: G1/S) | melting temperature (HeLa Kyoto [2]; cell cycle stage: mitosis) | solubility change mitosis (log2) (HeLa Kyoto [3]) | thermal stability score (HeLa Kyoto [4]; [5]) | thermal stability score (HeLa Kyoto [4]; cell cycle stage: mitosis)
1 | MACSIVQFCYFQDLQAARDFLFPHLREEILSGALRRDPSKSTDWEDDGWGAWEENEPQEPEEEGNTCKTQKTSWLQDCVLSLSPTNDLMVIAREQKAVFLVPKWKYSDKGKEEMQFAVGWSGSLNVEEGECVTSALCIPLASQKRSSTGRPDWTCIVVGFTSGYVRFYTENGVLLLAQLLNEDPVLQLKCRTYEIPRHPGVTEQNEELSILYPAAIVTIDGFSLFQSLRACRNQVAKAAASGNENIQPPPLAYKKWGLQDIDTIIDHASVGIMTLSPFDQMKTASNIGGFNAAIKNSPPAMSQYITVGSNPFTGFFYALEGSTQPLLSHVALAVASKLTSALFNAASGWLGWKSKHEEEAVQKQKPKVEPATPLAVRFGLPDSRRHGESICLSPCNTLAAVTDDFGRVILLDVARGIAIRMWKGYRDAQIGWIQTVEDLHERVPEKADFSPFGNSQGPSRVAQFLVIYAPRRGILEVWSTQQGPRVGAFNVGKHCRLLYPGYKIMGLNNVTSQSWQPQTYQICLVDPVSGSVKTVNVPFHLALSDKKSERAKDMHLVKKLAALLKTKSPNLDLVETEIKELILDIKYPATKKQALESILASERLPFSCLRNITQTLMDTLKSQELESVDEGLLQFCANKLKLLQLYESVSQLNSLDFHLDTPFSDNDLALLLRLDEKELLKLQALLEKYKQENTRTNVRFSDDKDGVLPVKTFLEYLEYEKDVLNIKKISEEEYVALGSFFFWKCLHGESSTEDMCHTLESAGLSPQLLLSLLLSVWLSKEKDILDKPQSICCLHTMLSLLSKMKVAIDETWDSQSVSPWWQQMRTACIQSENNGAALLSAHVGHSVAAQISNNMTEKKFSQTVLGADSEALTDSWEALSLDTEYWKLLLKQLEDCLILQTLLHSKGNTQTSKVSSLQAEPLPRLSVKKLLEGGKGGIADSVAKWIFKQDFSPEVLKLANEERDAENPDEPKEGVNRSFLEVSEMEMDLGAIPDLLHLAYEQFPCSLELDVLHAHCCWEYVVQWNKDPEEARFFVRSIEHLKQIFNAHVQNGIALMMWNTFLVKRFSAATYLMDKVGKSPKDRLCRRDVGMSDTAMTSFLGSCLDLLQILMEADVSRDEIQVPVLDTEDAWLSVEGPISIVELALEQKHIHYPLVEHHSILCSILYAVMRFSLKTVKPLSLFDSKGKNAFFKDLTSIQLLPSGEMDPNFISVRQQFLLKVVSAAVQAQHSATKVKDPTEEATPTPFGKDQDWPALAVDLAHHLQVSEDVVRRHYVGELYNYGVDHLGEEAILQVHDKEVLASQLLVLTGQRLAHALLHTQTKEGMELLARLPPTLCTWLKAMDPQDLQNTEVPIATTAKLVNKVIELLPEKHGQYGLALHLIEAVEAISLPSL [RAB3GAP2] | 0.0196 | 48.7 °C | 49.2 °C | -0.143 | 1.1 | 1.85
2 | MKYILVTGGVISGIGKGIIASSVGTILKSCGLHVTSIKIDPYINIDAGTFSPYEHGEVFVLDDGGEVDLDLGNYERFLDIRLTKDNNLTTGKIYQYVINKERKGDYLGKTVQVVPHITDAIQEWVMRQALIPVDEDGLEPQVCVIELGGTVGDIESMPFIEAFRQFQFKVKRENFCNIHVSLVPQPSSTGEQKTKPTQNSVRELRGLGLSPDLVVCRCSNPLDTSVKEKISMFCHVEPEQVICVHDVSSIYRVPLLLEEQGVVDYFLRRLDLPIERQPRKMLMKWKEMADRYDRLLETCSIALVGKYTKFSDSYASVIKALEHSALAINHKLEIKYIDSADLEPITSQEEPVRYHEAWQKLCSAHGVLVPGGFGVRGTEGKIQAIAWARNQKKPFLGVCLGMQLAVVEFSRNVLGWQDANSTEFDPTTSHPVVVDMPEHNPGQMGGTMRLGKRRTLFQTKNSVMRKLYGDADYLEERHRHRFEVNPVWKKCLEEQGLKFVGQDVEGERMEIVELEDHPFFVGVQYHPEFLSRPIKPSPPYFGLLLASVGRLSHYLQKGCRLSPRDTYSDRSGSSSPDSEITELKFPSINHD [CTPS1] | -0.00383 | 55.3 °C | 55.3 °C | -0.0782 | 0.505 | -2.34
3 | MRMSVGLSLLLPLSGRTFLLLLSVVMAQSHWPSEPSEAVRDWENQLEASMHSVLSDLHEAVPTVVGIPDGTAVVGRSFRVTIPTDLIASSGDIIKVSAAGKEALPSWLHWDSQSHTLEGLPLDTDKGVHYISVSATRLGANGSHIPQTSSVFSIEVYPEDHSELQSVRTASPDPGEVVSSACAADEPVTVLTVILDADLTKMTPKQRIDLLHRMRSFSEVELHNMKLVPVVNNRLFDMSAFMAGPGNAKKVVENGALLSWKLGCSLNQNSVPDIHGVEAPAREGAMSAQLGYPVVGWHIANKKPPLPKRVRRQIHATPTPVTAIGPPTTAIQEPPSRIVPTPTSPAIAPPTETMAPPVRDPVPGKPTVTIRTRGAIIQTPTLGPIQPTRVSEAGTTVPGQIRPTMTIPGYVEPTAVATPPTTTTKKPRVSTPKPATPSTDSTTTTTRRPTKKPRTPRPVPRVTTKVSITRLETASPPTRIRTTTSGVPRGGEPNQRPELKNHIDRVDAWVGTYFEVKIPSDTFYDHEDTTTDKLKLTLKLREQQLVGEKSWVQFNSNSQLMYGLPDSSHVGKHEYFMHATDKGGLSAVDAFEIHVHRRPQGDRAPARFKAKFVGDPALVLNDIHKKIALVKKLAFAFGDRNCSTITLQNITRGSIVVEWTNNTLPLEPCPKEQIAGLSRRIAEDDGKPRPAFSNALEPDFKATSITVTGSGSCRHLQFIPVVPPRRVPSEAPPTEVPDRDPEKSSEDDVYLHTVIPAVVVAAILLIAGIIAMICYRKKRKGKLTLEDQATFIKKGVPIIFADELDDSKPPPSSSMPLILQEEKAPLPPPEYPNQSVPETTPLNQDTMGEYTPLRDEDPNAPPYQPPPPFTAPMEGKGSRPKNMTPYRSPPPYVPP [DAG1] | -0.103 | 54.1 °C | 54.9 °C | 0.19 | -2.43 | -3.27
4 | MKMADRSGKIIPGQVYIEVEYDYEYEAKDRKIVIKQGERYILVKKTNDDWWQVKPDENSKAFYVPAQYVKEVTRKALMPPVKQVAGLPNNSTKIMQSLHLQRSTENVNKLPELSSFGKPSSSVQGTGLIRDANQNFGPSYNQGQTVNLSLDLTHNNGKFNNDSHSPKVSSQNRTRSFGHFPGPEFLDVEKTSFSQEQSCDSAGEGSERIHQDSESGDELSSSSTEQIRATTPPNQGRPDSPVYANLQELKISQSALPPLPGSPAIQINGEWETHKDSSGRCYYYNRGTQERTWKPPRWTRDASISKGDFQNPGDQELLSSEENYYSTSYSQSDSQCGSPPRGWSEELDERGHTLYTSDYTNEKWLKHVDDQGRQYYYSADGSRSEWELPKYNASSQQQREIIKSRSLDRRLQEPIVLTKWRHSTIVLDTNDKESPTASKPCFPENESSPSSPKHQDTASSPKDQEKYGLLNVTKIAENGKKVRKNWLSSWAVLQGSSLLFTKTQGSSTSWFGSNQSKPEFTVDLKGATIEMASKDKSSKKNVFELKTRQGTELLIQSDNDTVINDWFKVLSSTINNQAVETDEGIEEEIPDSPGIEKHDKEKEQKDPKKLRSFKVSSIDSSEQKKTKKNLKKFLTRRPTLQAVREKGYIKDQVFGSNLANLCQRENGTVPKFVKLCIEHVEEHGLDIDGIYRVSGNLAVIQKLRFAVNHDEKLDLNDSKWEDIHVITGALKMFFRELPEPLFTFNHFNDFVNAIKQEPRQRVAAVKDLIRQLPKPNQDTMQILFRHLRRVIENGEKNRMTYQSIAIVFGPTLLKPEKETGNIAVHTVYQNQIVELILLELSSIFGR [ARHGAP12] | -0.0332 | 50.7 °C | 50.1 °C | -0.246 | -0.591 | -0.433
5 | MVSRPEPEGEAMDAELAVAPPGCSHLGSFKVDNWKQNLRAIYQCFVWSGTAEARKRKAKSCICHVCGVHLNRLHSCLYCVFFGCFTKKHIHEHAKAKRHNLAIDLMYGGIYCFLCQDYIYDKDMEIIAKEEQRKAWKMQGVGEKFSTWEPTKRELELLKHNPKRRKITSNCTIGLRGLINLGNTCFMNCIVQALTHTPLLRDFFLSDRHRCEMQSPSSCLVCEMSSLFQEFYSGHRSPHIPYKLLHLVWTHARHLAGYEQQDAHEFLIAALDVLHRHCKGDDNGKKANNPNHCNCIIDQIFTGGLQSDVTCQVCHGVSTTIDPFWDISLDLPGSSTPFWPLSPGSEGNVVNGESHVSGTTTLTDCLRRFTRPEHLGSSAKIKCSGCHSYQESTKQLTMKKLPIVACFHLKRFEHSAKLRRKITTYVSFPLELDMTPFMASSKESRMNGQYQQPTDSLNNDNKYSLFAVVNHQGTLESGHYTSFIRQHKDQWFKCDDAIITKASIKDVLDSEGYLLFYHKQFLEYE [USP22] | -0.542 | 48.1 °C | 49.6 °C | -0.0588 | 0.773 | 1.56
6 | MIASHLLAYFFTELNHDQVQKVDQYLYHMRLSDETLLEISKRFRKEMEKGLGATTHPTAAVKMLPTFVRSTPDGTEHGEFLALDLGGTNFRVLWVKVTDNGLQKVEMENQIYAIPEDIMRGSGTQLFDHIAECLANFMDKLQIKDKKLPLGFTFSFPCHQTKLDESFLVSWTKGFKSSGVEGRDVVALIRKAIQRRGDFDIDIVAVVNDTVGTMMTCGYDDHNCEIGLIVGTGSNACYMEEMRHIDMVEGDEGRMCINMEWGAFGDDGSLNDIRTEFDQEIDMGSLNPGKQLFEKMISGMYMGELVRLILVKMAKEELLFGGKLSPELLNTGRFETKDISDIEGEKDGIRKAREVLMRLGLDPTQEDCVATHRICQIVSTRSASLCAATLAAVLQRIKENKGEERLRSTIGVDGSVYKKHPHFAKRLHKTVRRLVPGCDVRFLRSEDGSGKGAAMVTAVAYRLADQHRARQKTLEHLQLSHDQLLEVKRRMKVEMERGLSKETHASAPVKMLPTYVCATPDGTEKGDFLALDLGGTNFRVLLVRVRNGKWGGVEMHNKIYAIPQEVMHGTGDELFDHIVQCIADFLEYMGMKGVSLPLGFTFSFPCQQNSLDESILLKWTKGFKASGCEGEDVVTLLKEAIHRREEFDLDVVAVVNDTVGTMMTCGFEDPHCEVGLIVGTGSNACYMEEMRNVELVEGEEGRMCVNMEWGAFGDNGCLDDFRTEFDVAVDELSLNPGKQRFEKMISGMYLGEIVRNILIDFTKRGLLFRGRISERLKTRGIFETKFLSQIESDCLALLQVRAILQHLGLESTCDDSIIVKEVCTVVARRAAQLCGAGMAAVVDRIRENRGLDALKVTVGVDGTLYKLHPHFAKVMHETVKDLAPKCDVSFLQSEDGSGKGAALITAVACRIREAGQR [HK2] | -0.166 | 48.2 °C | 49.1 °C | -0.148 | 1.07 | 2.33
7 | MAGMVDFQDEEQVKSFLENMEVECNYHCYHEKDPDGCYRLVDYLEGIRKNFDEAAKVLKFNCEENQHSDSCYKLGAYYVTGKGGLTQDLKAAARCFLMACEKPGKKSIAACHNVGLLAHDGQVNEDGQPDLGKARDYYTRACDGGYTSSCFNLSAMFLQGAPGFPKDMDLACKYSMKACDLGHIWACANASRMYKLGDGVDKDEAKAEVLKNRAQQLHKEQQKGVQPLTFG [COA7] | 0.586 | 52.9 °C | 52.7 °C | 0.0461 | -1.59 | -1.97
8 | MSVTLHTDVGDIKIEVFCERTPKTCENFLALCASNYYNGCIFHRNIKGFMVQTGDPTGTGRGGNSIWGKKFEDEYSEYLKHNVRGVVSMANNGPNTNGSQFFITYGKQPHLDMKYTVFGKVIDGLETLDELEKLPVNEKTYRPLNDVHIKDITIHANPFAQ [PPIL3] | 0.455 | 48.9 °C | 50 °C | -0.00294 | 1.02 | 1.31
